Patent US20140044713A1 (KONINKLIJKE NEDERLANDSE AKADEMIE VAN WETENSCHAPPEN, published 2014)

T1: Frz6 (endogenous, LS174T cells) (human, UniProt O60353 19-706)
T1 construct: whole, on cells
T1 sequence (looked up): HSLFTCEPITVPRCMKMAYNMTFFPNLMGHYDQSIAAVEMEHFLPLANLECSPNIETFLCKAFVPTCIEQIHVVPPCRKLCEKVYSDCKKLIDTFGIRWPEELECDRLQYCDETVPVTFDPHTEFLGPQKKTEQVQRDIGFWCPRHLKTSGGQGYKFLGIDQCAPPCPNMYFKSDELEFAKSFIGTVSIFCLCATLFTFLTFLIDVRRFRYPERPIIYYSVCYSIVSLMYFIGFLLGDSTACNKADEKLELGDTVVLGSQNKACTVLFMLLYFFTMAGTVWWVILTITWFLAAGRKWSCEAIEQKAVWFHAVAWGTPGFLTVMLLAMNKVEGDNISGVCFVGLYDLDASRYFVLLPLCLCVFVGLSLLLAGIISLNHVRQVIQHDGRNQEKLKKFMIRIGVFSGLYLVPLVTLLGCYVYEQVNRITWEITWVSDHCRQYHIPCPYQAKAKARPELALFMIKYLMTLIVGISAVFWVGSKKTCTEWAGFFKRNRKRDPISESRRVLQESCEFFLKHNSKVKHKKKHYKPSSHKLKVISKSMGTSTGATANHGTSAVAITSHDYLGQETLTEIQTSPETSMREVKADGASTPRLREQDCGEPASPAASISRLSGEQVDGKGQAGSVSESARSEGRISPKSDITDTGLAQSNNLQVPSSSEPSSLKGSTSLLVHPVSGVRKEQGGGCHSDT


Tests used:
LRP5 (endogenous) = target: T2, LRP5 (endogenous) (human, UniProt O75197 32-1615); assay: TAP + mass spectrometry, HEK293 cells
T2 construct: whole, on cells

LRP6 (endogenous) = target: T3, LRP6 (endogenous) (human, UniProt O75581 20-1613); assay: TAP + mass spectrometry, HEK293 cells
T3 construct: whole, on cells

[1] = target: T4, Lgr4 (endogenous, or expression construct whose tag is not stated) (human, UniProt Q9BXB1 25-951); assay: TAP + mass spectrometry, HEK293 cells
T4 construct: whole, on cells; Endogenous protein of HEK293T / LS174T cells in TAP-MS; also called endogenous Lgr4

[2] = target: T5, Frz7 (endogenous, LS174T cells) (human, UniProt O75084 33-574); assay: TAP (anti-FLAG, anti-HA) + mass spectrometry, bait stably expressed in LS174T cells, Exp 3-6
T5 construct: whole, on cells
Method: (§1) Left panel (Exps 1-7): HEK293T cells were transiently transfected, and LS174T cells were stably, transfected with the indicated tagged proteins. Right panel (Exps 8-9): HEK293T cells were incubated with the indicated tagged soluble proteins at 1 μg/ml. Sequential immunoprecipitation was performed by anti-FLAG and anti-HA antibodies and the associated complexes were analysed by mass spectrometry. Number of assigned spectra, number of unique peptides and the MASCOT Protein Score are given for selected identified proteins.

[3] = target: T4, Lgr4 (endogenous, or expression …); assay: TAP (anti-FLAG, anti-HA) + mass spectrometry, 293T cells incubated with the soluble tagged bait, Exp 8
Method: as §1

[4] = target: T1, Frz6 (endogenous, LS174T cells); assay: TAP (anti-FLAG, anti-HA) + mass spectrometry, bait stably expressed in LS174T cells, Exp 7
Method: as §1

[5] = target: T5, Frz7 (endogenous, LS174T cells); assay: as above
Method: as §1

T2 sequence (O75197 32-1615): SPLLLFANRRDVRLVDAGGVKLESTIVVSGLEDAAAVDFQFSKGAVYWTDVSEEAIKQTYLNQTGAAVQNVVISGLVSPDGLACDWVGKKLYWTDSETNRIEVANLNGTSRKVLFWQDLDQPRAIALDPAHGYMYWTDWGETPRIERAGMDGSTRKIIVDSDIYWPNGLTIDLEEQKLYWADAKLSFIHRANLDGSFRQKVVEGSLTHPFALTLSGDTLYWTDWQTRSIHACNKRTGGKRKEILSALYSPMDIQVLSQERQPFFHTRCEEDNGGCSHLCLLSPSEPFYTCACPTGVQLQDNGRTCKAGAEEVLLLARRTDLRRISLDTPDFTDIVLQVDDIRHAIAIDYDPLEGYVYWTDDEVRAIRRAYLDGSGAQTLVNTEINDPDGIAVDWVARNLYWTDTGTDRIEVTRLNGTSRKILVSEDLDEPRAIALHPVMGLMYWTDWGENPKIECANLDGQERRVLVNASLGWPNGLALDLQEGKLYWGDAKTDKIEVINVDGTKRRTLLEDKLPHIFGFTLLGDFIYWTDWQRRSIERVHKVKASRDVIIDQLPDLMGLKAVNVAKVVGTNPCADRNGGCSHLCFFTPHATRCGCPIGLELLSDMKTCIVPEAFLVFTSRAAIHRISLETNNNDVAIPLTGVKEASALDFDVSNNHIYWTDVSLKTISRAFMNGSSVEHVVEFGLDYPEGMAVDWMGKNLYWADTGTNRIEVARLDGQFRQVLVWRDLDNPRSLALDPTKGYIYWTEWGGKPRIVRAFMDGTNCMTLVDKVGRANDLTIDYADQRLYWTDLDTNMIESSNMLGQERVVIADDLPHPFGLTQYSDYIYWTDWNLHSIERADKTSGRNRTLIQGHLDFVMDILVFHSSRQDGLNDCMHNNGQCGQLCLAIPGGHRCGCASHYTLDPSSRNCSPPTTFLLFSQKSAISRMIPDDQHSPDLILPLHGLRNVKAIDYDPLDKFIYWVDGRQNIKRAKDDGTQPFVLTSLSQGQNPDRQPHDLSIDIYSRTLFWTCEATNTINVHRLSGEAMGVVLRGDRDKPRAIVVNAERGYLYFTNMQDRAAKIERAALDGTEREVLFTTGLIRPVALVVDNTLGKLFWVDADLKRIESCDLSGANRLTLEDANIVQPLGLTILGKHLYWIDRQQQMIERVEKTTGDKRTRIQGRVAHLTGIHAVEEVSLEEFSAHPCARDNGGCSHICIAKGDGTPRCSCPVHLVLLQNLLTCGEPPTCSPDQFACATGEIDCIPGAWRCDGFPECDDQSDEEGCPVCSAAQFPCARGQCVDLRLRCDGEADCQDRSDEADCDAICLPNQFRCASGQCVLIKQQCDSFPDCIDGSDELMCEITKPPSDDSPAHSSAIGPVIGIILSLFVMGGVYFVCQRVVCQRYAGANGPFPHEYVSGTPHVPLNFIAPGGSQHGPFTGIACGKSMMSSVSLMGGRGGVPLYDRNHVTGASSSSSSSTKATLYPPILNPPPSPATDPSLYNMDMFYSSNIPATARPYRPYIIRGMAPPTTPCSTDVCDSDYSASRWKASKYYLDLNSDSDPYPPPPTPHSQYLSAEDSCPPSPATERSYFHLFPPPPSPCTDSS
T3 sequence (O75581 20-1613): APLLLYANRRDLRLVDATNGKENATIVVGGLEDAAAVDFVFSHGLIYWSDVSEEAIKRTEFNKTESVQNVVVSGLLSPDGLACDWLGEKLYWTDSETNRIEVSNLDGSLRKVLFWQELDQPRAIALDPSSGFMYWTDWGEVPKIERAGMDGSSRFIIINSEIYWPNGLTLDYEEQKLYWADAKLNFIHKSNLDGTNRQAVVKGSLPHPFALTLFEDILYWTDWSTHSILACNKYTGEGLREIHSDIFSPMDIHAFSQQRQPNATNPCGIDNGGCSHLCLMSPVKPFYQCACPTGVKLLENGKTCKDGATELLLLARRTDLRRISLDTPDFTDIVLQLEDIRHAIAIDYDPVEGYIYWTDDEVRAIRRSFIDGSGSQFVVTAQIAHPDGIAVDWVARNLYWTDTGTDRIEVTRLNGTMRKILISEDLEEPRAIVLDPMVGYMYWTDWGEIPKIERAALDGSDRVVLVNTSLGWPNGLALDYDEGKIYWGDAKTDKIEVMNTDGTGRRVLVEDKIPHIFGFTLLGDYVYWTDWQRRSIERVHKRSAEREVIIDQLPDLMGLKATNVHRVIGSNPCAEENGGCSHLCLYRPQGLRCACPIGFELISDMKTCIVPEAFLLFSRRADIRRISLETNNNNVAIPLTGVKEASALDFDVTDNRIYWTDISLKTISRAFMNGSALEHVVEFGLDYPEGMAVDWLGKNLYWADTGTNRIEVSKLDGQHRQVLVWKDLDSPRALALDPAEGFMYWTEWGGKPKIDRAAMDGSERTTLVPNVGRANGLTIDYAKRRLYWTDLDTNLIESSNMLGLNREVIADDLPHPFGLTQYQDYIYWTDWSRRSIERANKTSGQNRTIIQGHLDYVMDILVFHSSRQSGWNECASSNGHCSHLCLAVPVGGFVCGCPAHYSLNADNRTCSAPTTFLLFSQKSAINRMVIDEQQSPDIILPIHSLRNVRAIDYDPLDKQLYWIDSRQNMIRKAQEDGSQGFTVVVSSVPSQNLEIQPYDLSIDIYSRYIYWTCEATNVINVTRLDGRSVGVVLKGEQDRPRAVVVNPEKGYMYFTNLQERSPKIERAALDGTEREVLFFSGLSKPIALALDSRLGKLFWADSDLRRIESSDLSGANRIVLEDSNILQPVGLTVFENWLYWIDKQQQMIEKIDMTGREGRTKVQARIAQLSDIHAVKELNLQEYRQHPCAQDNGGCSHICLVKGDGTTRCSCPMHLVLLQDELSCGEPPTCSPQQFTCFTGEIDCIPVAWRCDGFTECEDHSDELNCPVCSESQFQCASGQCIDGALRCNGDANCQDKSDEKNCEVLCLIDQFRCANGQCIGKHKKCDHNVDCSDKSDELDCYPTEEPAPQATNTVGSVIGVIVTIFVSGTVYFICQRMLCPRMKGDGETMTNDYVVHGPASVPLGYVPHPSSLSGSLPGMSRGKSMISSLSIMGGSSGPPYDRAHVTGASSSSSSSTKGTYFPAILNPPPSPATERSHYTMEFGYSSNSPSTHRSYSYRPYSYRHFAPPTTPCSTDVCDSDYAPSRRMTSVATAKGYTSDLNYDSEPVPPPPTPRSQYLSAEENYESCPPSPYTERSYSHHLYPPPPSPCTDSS

Row | binding result (LRP5 (endogenous)) | binding result (LRP6 (endogenous)) | binding result [1] | Binder | also measured
1 | no binding | no binding | no binding | eEF2K (enzyme, not shown: small tags and cut ends, TAP-MS bait) ADEDLIFRLEGVDGGQSPRAGHDGDSDGDSDDEEGYFICPITDDPSSNQNVNSKVNKYYSNLTKSERYSSSGSPANSFHFKEAWKHAIQKAKHMPDPWAEFHLEDIATERATRHRYNAVTGEWLDDEVLIKMASQPFGRGAMRECFRTKKLSNFLHAQQWKGASNYVAKRYIEPVDRDVYFEDVRLQMEAKLWGEEYNRHKPPKQVDIMQMCIIELKDRPGKPLFHLEHYIEGKYIKYNSNSGFVRDDNIRLTPQAFSHFTFERSGHQLIVVDIQGVGDLYTDPQIHTETGTDFGDGNLGVRGMALFFYSHACNRICESMGLAPFDLSPRERDAVNQNTKLLQSAKTILRGTEEKCGSPQVRTLSGSRPPLLRPLSENSGDENMSDVTFDSLPSSPSSATPHSQKLDHLHWPVFSDLDNMASRDHDHLDNHRESENSGDSGYPSEKRGELDDPEPREHGHSYSNRKYESDEDSLGSSGRVCVEKWNLLNSSRLHLPRASAVALEVQRLNALDLEKKIGKSILGKVHLAMVRYHEGGRFCEKGEEWDQESAVFHLEHAANLGELEAIVGLGLMYSQLPHHILADVSLKETEENKTKGFDYLLKAAEAGDRQSMILVARAFDSGQNLSPDRCQDWLEALHWYNTALEMTDCDEGGEYDGMQDEPRYMMLAREAEMLFTGGYGLEKDPQRSGDLYTQAAEAAMEAMKGRLANQYYQKAEEAWAQMEE | 
2 | no binding | no binding | no binding | FBXW4 (other, not shown: small tags and cut ends, TAP-MS bait) MAAAAGEEEEEEEAARESAARPAAGPALWRLPEELLLLICSYLDMRALGRLAQVCRWLRRFTSCDLLWRRIARASLNSGFTRLGTDLMTSVPVKERVKVSQNWRLGRCREGILLKWRCSQMPWMQLEDDSLYISQANFILAYQFRPDGASLNRRPLGVFAGHDEDVCHFVLANSHIVSAGGDGKIGIHKIHSTFTVKYSAHEQEVNCVDCKGGIIVSGSRDRTAKVWPLASGRLGQCLHTIQTEDRVWSIAISPLLSSFVTGTACCGHFSPLRIWDLNSGQLMTHLGSDFPPGAGVLDVMYESPFTLLSCGYDTYVRYWDLRTSVRKCVMEWEEPHDSTLYCLQTDGNHLLATGSSYYGVVRLWDRRQRACLHAFPLTSTPLSSPVYCLRLTTKHLYAALSYNLHVLDFQNP | 

More lines, now with the values behind:

Row | Binder | binding result (LRP5 (endogenous)) | binding result (LRP6 (endogenous)) | binding result [1] | also measured
3 | UCHL1 (enzyme, not shown: small tags and cut ends, TAP-MS bait) MQLKPMEINPEMLNKVLSRLGVAGQWRFVDVLGLEEESLGSVPAPACALLLLFPLTAQHENFRKKQIEELKGQEVSPKVYFMKQTIGNSCGTIGLIHAVANNQDKLGFEDGSVLKQFLSETEKMSPEDRAKCFEKNEAIQAAHDAVAQEGQCRVDDKVNFHFILFNNVDGHLYELDGRMPFPVNHGASSEDTLLKDAAKVCREFTEREQGEVRFSAVALC | no binding | no binding | no binding | 
4 | KCTD21 (other, not shown: small tags and cut ends, TAP-MS bait) MSDPITLNVGGKLYTTSLATLTSFPDSMLGAMFSGKMPTKRDSQGNCFIDRDGKVFRYILNFLRTSHLDLPEDFQEMGLLRREADFYQVQPLIEALQEKEVELSKAEKNAMLNITLNQRVQTVHFTVREAPQIYSLSSSSMEVFNANIFSTSCLFLKLLGSKLFYCSNGNLSSITSHLQDPNHLTLDWVANVEGLPEEEYTKQNLKRLWVVPANKQINSFQVFVEEVLKIALSDGFCIDSSHPHALDFMNNKIIRLIRYR | no binding | no binding | no binding | 
5 | FLAG/HA-tagged Lgr5 (receptor, human, UniProt O75473 22-907, looked up, whole, on cells; also called Lgr5 bait; FH-tagged human Lgr5; not shown: FLAG/HA double tag) GSSPRSGVLLRGCPTHCHCEPDGRMLLRVDCSDLGLSELPSNLSVFTSYLDLSMNNISQLLPNPLPSLRFLEELRLAGNALTYIPKGAFTGLYSLKVLMLQNNQLRHVPTEALQNLRSLQSLRLDANHISYVPPSCFSGLHSLRHLWLDDNALTEIPVQAFRSLSALQAMTLALNKIHHIPDYAFGNLSSLVVLHLHNNRIHSLGKKCFDGLHSLETLDLNYNNLDEFPTAIRTLSNLKELGFHSNNIRSIPEKAFVGNPSLITIHFYDNPIQFVGRSAFQHLPELRTLTLNGASQITEFPDLTGTANLESLTLTGAQISSLPQTVCNQLPNLQVLDLSYNLLEDLPSFSVCQKLQKIDLRHNEIYEIKVDTFQQLLSLRSLNLAWNKIAIIHPNAFSTLPSLIKLDLSSNLLSSFPITGLHGLTHLKLTGNHALQSLISSENFPELKVIEMPYAYQCCAFGVCENAYKISNQWNKGDNSSMDDLHKKDAGMFQAQDERDLEDFLLDFEEDLKALHSVQCSPSPGPFKPCEHLLDGWLIRIGVWTIAVLALTCNALVTSTVFRSPLYISPIKLLIGVIAAVNMLTGVSSAVLAGVDAFTFGSFARHGAWWENGVGCHVIGFLSIFASESSVFLLTLAALERGFSVKYSAKFETKAPFSSLKVIILLCALLALTMAAVPLLGGSKYGASPLCLPLPFGEPSTMGYMVALILLNSLCFLMMTIAYTKLYCNLDKGDLENIWDCSMVKHIALLLFTNCILNCPVAFLSFSSLINLTFISPEVIKFILLVVVPLPACLNPLLYILFNPHFKEDLVSLRKQTYVWTRSKHPSLMSINSDDVEKQSCDSTQALVTFTSSSITYDLPPSSVPSPAYPVTESCHLSSVAFVPCL |  |  |  | binding result [2]: no binding
6 | double (Flag-HA)-tagged version of human Dkk1 (Dkk1-FH) (ligand, UniProt O94907 32-266, looked up, not shown: Flag-HA double tag) TLNSVLNSNAIKNLPPPLGGAAGHPGSAVSAAPGILYPGGNKYQTIDNYQPYPCAEDEECGTDEYCASPTRGGDAGVQICLACRKRRKRCMRHAMCCPGNYCKNGICVSSDQNHFRGEIEETITESFGNDHSTLDGYSRRTTLSSKMYHTKGQEGSVCLRSSDCASGLCCARHFWSKICKPVLKEGQVCTKHRRKGSHGLEIFQRCYCGEGLSCRIQKDHHQASNSSRLHTCQRH |  |  |  | binding result [3]: no binding (tested: 1 µg/ml)
7 | FBXW5 (other, not shown: small tags and cut ends, TAP-MS bait) MDEGGTPLLPDSLVYQIFLSLGPADVLAAGLVCRQWQAVSRDEFLWREQFYRYYQVARDVPRHPAAMSWYEEFQRLYDTVPCVEVQTLREHTDQVLHLSFSHSGYQFASCSKDCTVKIWSNDLTISLLHSADMRPYNWSYTQFSQFNKDDSLLLASGVFLGPHNSSSGEIAVISLDSFALLSRVRNKPYDVFGCWLTETSLISGNLHRIGDITSCSVLWLNNAFQDVESENVNVVKRLFKIQNLNASTVRTVMVADCSRFDSPDLLLEAGDPATSPCRIFDLGSDNEEVVAGPAPAHAKEGLRHFLDRVLEGRAQPQLSERMLETKVAELLAQGHTKPPERSATGAKSKYLIFTTGCLTYSPHQIGIKQILPHQMTTAGPVLGEGRGSDAFFDALDHVIDIHGHIIGMGLSPDNRYLYVNSRAWPNGAVVADPMQPPPIAEEIDLLVFDLKTMREVRRALRAHRAYTPNDECFFIFLDVSRDFVASGAEDRHGYIWDRHYNICLARLRHEDVVNSVVFSPQEQELLLTASDDATIKAWRSPRTMRVLQAPRPRPRTFFSWLASQRR | no binding | no binding | no binding | 
8 | tagged Frizzled5 (Frz5) (receptor, UniProt Q13467 27-585, looked up, whole, on cells; also called double-tagged Frizzled5; Frz5 bait; not shown: FLAG/HA tag) ASKAPVCQEITVPMCRGIGYNLTHMPNQFNHDTQDEAGLEVHQFWPLVEIQCSPDLRFFLCSMYTPICLPDYHKPLPPCRSVCERAKAGCSPLMRQYGFAWPERMSCDRLPVLGRDAEVLCMDYNRSEATTAPPRPFPAKPTLPGPPGAPASGGECPAGGPFVCKCREPFVPILKESHPLYNKVRTGQVPNCAVPCYQPSFSADERTFATFWIGLWSVLCFISTSTTVATFLIDMERFRYPERPIIFLSACYLCVSLGFLVRLVVGHASVACSREHNHIHYETTGPALCTIVFLLVYFFGMASSIWWVILSLTWFLAAGMKWGNEAIAGYAQYFHLAAWLIPSVKSITALALSSVDGDPVAGICYVGNQNLNSLRGFVLGPLVLYLLVGTLFLLAGFVSLFRIRSVIKQGGTKTDKLEKLMIRIGIFTLLYTVPASIVVACYLYEQHYRESWEAALTCACPGHDTGQPRAKPEYWVLMLKYFMCLVVGITSGVWIWSGKTVESWRRFTSRCCCRPRRGHKSGGAMAAGDYPEASAALTGRTGPPGPAATYHKQVSLSHV |  |  |  | binding result [4]: no binding; binding result [5]: no binding
